Experimental data taken from patent publication US10829540.

Target: human P2X4 (human) (UniProt Q99571)
Experiment: cell-based or functional assay

Chain of human P2X4 (human) (Q99571 whole entry): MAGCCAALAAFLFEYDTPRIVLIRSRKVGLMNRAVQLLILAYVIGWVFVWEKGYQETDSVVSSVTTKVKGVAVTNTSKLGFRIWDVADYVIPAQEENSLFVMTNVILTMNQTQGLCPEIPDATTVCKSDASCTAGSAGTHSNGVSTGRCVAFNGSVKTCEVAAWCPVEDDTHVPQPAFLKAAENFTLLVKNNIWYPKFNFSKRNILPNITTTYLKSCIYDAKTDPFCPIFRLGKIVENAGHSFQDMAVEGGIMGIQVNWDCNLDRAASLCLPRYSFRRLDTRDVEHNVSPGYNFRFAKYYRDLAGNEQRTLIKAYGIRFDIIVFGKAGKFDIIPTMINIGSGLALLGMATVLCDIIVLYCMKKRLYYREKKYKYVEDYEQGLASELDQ

Fraction of control at human P2X4 (Exp 1), mean, at 7.8 µM; QPatch electrophysiology, ATP-evoked currents (fraction of control): 1.4 | Fraction of control at human P2X4 (Exp 2), mean, at 7.8 µM; QPatch electrophysiology, ATP-evoked currents (fraction of control): 1.36
Substance: isotype control IgG NIP 228 (antibody)
